The supplement of paper PMC10126150
± gives the standard deviation of the averaged measurements.

Tested on: ATP
Assay: switch fluorescence ratio, 500 uM ATP over buffer (Cy3 cluster intensity, sum of 5 cycles each) (fold (ratio)); higher = stronger signal-on switching upon ATP binding; sequences stand for … in TCGTCGGCAGCGTCAGATGTGTATAAGAGACAGTTTTTTTTTTTTTTTTTTTTTTTTT…TC
Conditions: aptamer strand: ATP DNA aptamer (quencher-CACCTGGGGGAGTATTGCGGAGGAAGG + anchor), 100 nM annealed; ATP concentration: 500 uM
In short: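 Switching-strand clusters labelled with Cy3 on a modified Illumina MiSeq flow-cell were annealed to 100 nM quencher-labelled ATP aptamer, imaged in selection buffer, and re-imaged after 15 min with 500 uM ATP at 22 °C. This was done over five cycles with NaOH stripping and re-annealing in between. The fluorescence ratio is summed target-cycle over summed buffer-cycle Cy3 intensity per cluster, averaged per switch-domain sequence, excluding clusters outside 100-1000 RFU.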
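Further: ATP exposure 15 min at 22 °C before imaging.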

Row | Sequence | switch fluorescence ratio
1 | GACCTATTTC | 1.01 ± 0.019
2 | CTTGGGAGAA | 0.9961 ± 0.0032
3 | CAGCATCATC | 1.242 ± 0.011
4 | CGGTTTTTTT | 0.978 ± 0.016
5 | GAGAGCTATA | 1.07 ± 0.044
6 | TGGGATGTTA | 0.9872 ± 0.0074
7 | AAAATTCTGC | 1.06 ± 0.022
8 | GGGAAAATA | 0.969 ± 0.018
9 | TGGTGGTTGC | 0.96 ± 0.051
10 | TCCGCGGAG | 1.15 ± 0.13
11 | GTAGAATGTG | 0.983 ± 0.03
12 | ACTTTTGACT | 0.982 ± 0.022
13 | TTTTGCGGGG | 1.08 ± 0.15
14 | TTGGAGAGTG | 0.963 ± 0.021
15 | CGTAGAGGGC | 0.986 ± 0.034
16 | GGAAGGGTCG | 1.04 ± 0.022
17 | GTGTTCGGCG | 1.07 ± 0.066
18 | AGTTAATGAC | 0.997 ± 0.013
19 | TTATTGATCT | 1 ± 0.065
20 | CAGGGAAAGA | 1 ± 0.011
21 | TGGAGTCAGG | 1.05 ± 0.049
22 | GGAGAATATG | 1.038 ± 0.0095
23 | TGGGTATTCT | 0.945 ± 0.024

Row | Sequence | switch fluorescence ratio
24 | CCTATTCGTT | 1.0064 ± 0.0008
25 | CCAGCTTTTA | 1.09 ± 0.052
26 | CAGGCCTCTT | 0.9943 ± 0.0035
27 | ACATTTGTGG | 1.01 ± 0.021
28 | AGTGGCCCCG | 1 ± 0.011
29 | TCCGTTGCGG | 1.03 ± 0.034
30 | GGTTGGTTGT | 1.15 ± 0.21
31 | GCAGTGTGCG | 0.985 ± 0.025
32 | GTTTATTCGA | 0.989 ± 0.014
33 | ATATATATGG | 1.03 ± 0.035
34 | GTAGTCATTT | 0.992 ± 0.022
35 | CGCGTGCAGG | 1.02 ± 0.033
36 | CCATGGAGGT | 1.01 ± 0.034
37 | TAGGTCTAGT | 0.98706 ± 0.0005
38 | GCGATTGGCT | 1.06 ± 0.018
39 | CCGGAGAGTT | 1.58 ± 0.11
40 | TCATTGGGG | 0.974 ± 0.029
41 | ATTGTACGCT | 1.015 ± 0.0056
42 | TTGTTTTTTA | 1.01 ± 0.016
43 | GAACGAAGCA | 1.84 ± 0.051
44 | TTATTTTTCG | 1.02 ± 0.018
45 | ACAGCGTGGG | 1.041 ± 0.0097
46 | ATAAGGGAAC | 1.04 ± 0.017

Row | Sequence | switch fluorescence ratio
47 | GTGGAAATGG | 1.01 ± 0.022
48 | CCTGAGATAC | 1.88 ± 1
49 | GCATGATATG | 1.01 ± 0.0088
50 | CTGTGTGCAC | 1 ± 0.066
51 | GGGGCCACGC | 1.01 ± 0.034
52 | TTATGGTGAA | 0.956 ± 0.049
53 | CCACAGTGTT | 1.61 ± 0.1
54 | TATCATGGGG | 0.996 ± 0.031
55 | TAGGTTCTAA | 1.06 ± 0.079
56 | TTTTCAAATT | 1.01 ± 0.028
57 | TTTTTACGAG | 0.988 ± 0.045
58 | GGGGATAGAT | 0.982 ± 0.027
59 | GGGTTGATTT | 0.958 ± 0.053
60 | GATTTGGTTG | 0.963 ± 0.026
61 | GCGTGGGGCG | 0.996 ± 0.011
62 | TTTAGTTTG | 1 ± 0.037
63 | GCGGAGGCGG | 0.976 ± 0.031
64 | GGCCGCCGTC | 1 ± 0.019
65 | CGTTTGGACG | 0.989 ± 0.079
66 | GTGTCGGGGA | 1.01 ± 0.071
67 | TATTGTGACT | 1.021 ± 0.01
68 | CTGAGGGCG | 1.045 ± 0.0058
69 | GCGAGCGTCC | 1.025 ± 0.0023

Row | Sequence | switch fluorescence ratio
70 | ATTTGTATGT | 0.963 ± 0.013
71 | GTTAACCCAT | 1.0083 ± 4.1e-05
72 | TGGGGGAGGG | 1 ± 0.054
73 | GGTTGGGCTC | 1.001 ± 0.0099
74 | GGTGTCGTTT | 1.02 ± 0.024
75 | GGTGATGGGT | 0.971 ± 0.04
76 | TTAGGTCATG | 0.9877 ± 0.0034
77 | TTAAAATGGG | 1.01 ± 0.043
78 | GGGGTTAGGT | 1.01 ± 0.031
79 | TTTCGGGGTT | 1.04 ± 0.1
80 | GGTGTTGAGT | 0.993 ± 0.037
81 | GTTTATGGTT | 1 ± 0.022
82 | ATTGAGTAGC | 1.01 ± 0.032
83 | GGTAGGTGTT | 1.04 ± 0.037
84 | ATACGGGGTT | 1.008 ± 0.0032
85 | TAAGCCTTG | 0.996 ± 0.006
86 | TAATTTTCCG | 1.02 ± 0.043
87 | GGTGCTGGTG | 1.05 ± 0.025
88 | ATAGGAATGG | 1.02 ± 0.023
89 | AGGGTGGTTT | 0.997 ± 0.02
90 | TTGAGACGGT | 1 ± 0.017
91 | CTAGGGCTTC | 0.979 ± 0.02
92 | TAGAAATGGT | 0.994 ± 0.041

Row | Sequence | switch fluorescence ratio
93 | AAAGACGCGC | 0.998 ± 0.038
94 | TTCCTTGGAG | 1.01 ± 0.047
95 | AGTCGGATTC | 1.09 ± 0.076
96 | AATATGTCGG | 1 ± 0.021
97 | GTGTTCATGG | 1 ± 0.012
98 | GACTAAAGTA | 1.05 ± 0.074
99 | GAGGATTCAT | 1.04 ± 0.085
100 | ATGCGAGTGG | 1.01 ± 0.047
101 | AGATTGTTGG | 0.989 ± 0.019
102 | CATGAGTAGG | 0.979 ± 0.016
103 | GCGAACGGAG | 0.998 ± 0.011
104 | TCCTGCTGTT | 0.998 ± 0.02
105 | AGCGCCTTTG | 0.9905 ± 0.0024
106 | CGGGGGAGCA | 1.01 ± 0.017
107 | GGAAATTTGG | 0.993 ± 0.037
108 | TACCCAAAAT | 1.1 ± 0.15
109 | ATTTGACTCT | 0.986 ± 0.021
110 | CGAGGGTGTT | 1.05 ± 0.077
111 | ATCGTTGTAC | 1.18 ± 0.048
112 | TGGTAAATAT | 1.01 ± 0.013
113 | ACGGGTTCCA | 1.08 ± 0.13
114 | GGTACTTGGG | 0.984 ± 0.033
115 | GAGATAGGGT | 1.03 ± 0.013

Row | Sequence | switch fluorescence ratio
116 | TTTTTGTTGA | 0.991 ± 0.026
117 | GAATTAACAA | 0.999 ± 0.024
118 | TTTTTCGG | 0.996 ± 0.025
119 | ACGTTCGTTG | 0.9908 ± 0.0096
120 | CGCCTGGGCA | 1.02 ± 0.043
121 | TTTTGTGAAT | 0.9561 ± 0.0045
122 | CGGGGGGGGC | 1.02 ± 0.044
123 | CATGTGGGGT | 0.992 ± 0.034
124 | AACATGGGGA | 0.976 ± 0.025
125 | GGGGTGGCGC | 0.964 ± 0.036
126 | GAAGAATTGT | 0.991 ± 0.038
127 | AAGTCAATTC | 1.36 ± 0.12
128 | GGCAGGTTGG | 0.952 ± 0.014
129 | CCTATATAGA | 0.999 ± 0.029
130 | AGCAAACTTG | 1.04 ± 0.049
131 | TATGTGTGAT | 0.996 ± 0.013
132 | CATGGTCTCA | 1.017 ± 0.0017
133 | CGGGGCTGCT | 1.01 ± 0.018
134 | TTGCGGTGTG | 1 ± 0.024
135 | ATGTGGATTT | 0.988 ± 0.023
136 | AAGGCACCGT | 1.03 ± 0.038
137 | AGAATTCCGT | 0.992 ± 0.01
138 | TGGGGGGTTA | 0.995 ± 0.024

Row | Sequence | switch fluorescence ratio
139 | TGGTTTGGGT | 0.986 ± 0.026
140 | GGGAGGTATA | 0.969 ± 0.012
141 | CCAAGGTGGA | 1.1 ± 0.12
142 | AAACTGTATT | 1.08 ± 0.019
143 | GGCGGGCGCT | 0.993 ± 0.032
144 | TGTAAAGGAA | 0.992 ± 0.024
145 | TTTTTAGCCC | 1.02 ± 0.053
146 | AGCGTGTGTG | 1.05 ± 0.059
147 | GGGAGATTGT | 0.999 ± 0.026
148 | AACGTGAGTG | 1.02 ± 0.011
149 | TGCATGGATC | 1.02 ± 0.012
150 | GCGGGGGGTT | 1.01 ± 0.038
151 | TCAGGACGGC | 0.99 ± 0.044
152 | GGCGCGTGTC | 0.9945 ± 0.009
153 | TTGCGAATGT | 0.997 ± 0.038
154 | GGGGAGGAGG | 0.986 ± 0.0087
155 | TGAACATTTG | 1.03 ± 0.025
156 | ACCTCTTGGG | 0.9405 ± 0.0011
157 | TATGTGGCT | 1.017 ± 0.0043
